Assay [1] deals with T1, MBP-Ync13-full length-6His (S. pombe, UniProt O13683 1-1237).
T1 construct: pET21a-MBP: MBP-TEV-GGSGGS stands before Ync13, 6xHis after it; not shown: MBP, N-terminal, kept; His6, C-terminal, kept
T1 sequence (looked up): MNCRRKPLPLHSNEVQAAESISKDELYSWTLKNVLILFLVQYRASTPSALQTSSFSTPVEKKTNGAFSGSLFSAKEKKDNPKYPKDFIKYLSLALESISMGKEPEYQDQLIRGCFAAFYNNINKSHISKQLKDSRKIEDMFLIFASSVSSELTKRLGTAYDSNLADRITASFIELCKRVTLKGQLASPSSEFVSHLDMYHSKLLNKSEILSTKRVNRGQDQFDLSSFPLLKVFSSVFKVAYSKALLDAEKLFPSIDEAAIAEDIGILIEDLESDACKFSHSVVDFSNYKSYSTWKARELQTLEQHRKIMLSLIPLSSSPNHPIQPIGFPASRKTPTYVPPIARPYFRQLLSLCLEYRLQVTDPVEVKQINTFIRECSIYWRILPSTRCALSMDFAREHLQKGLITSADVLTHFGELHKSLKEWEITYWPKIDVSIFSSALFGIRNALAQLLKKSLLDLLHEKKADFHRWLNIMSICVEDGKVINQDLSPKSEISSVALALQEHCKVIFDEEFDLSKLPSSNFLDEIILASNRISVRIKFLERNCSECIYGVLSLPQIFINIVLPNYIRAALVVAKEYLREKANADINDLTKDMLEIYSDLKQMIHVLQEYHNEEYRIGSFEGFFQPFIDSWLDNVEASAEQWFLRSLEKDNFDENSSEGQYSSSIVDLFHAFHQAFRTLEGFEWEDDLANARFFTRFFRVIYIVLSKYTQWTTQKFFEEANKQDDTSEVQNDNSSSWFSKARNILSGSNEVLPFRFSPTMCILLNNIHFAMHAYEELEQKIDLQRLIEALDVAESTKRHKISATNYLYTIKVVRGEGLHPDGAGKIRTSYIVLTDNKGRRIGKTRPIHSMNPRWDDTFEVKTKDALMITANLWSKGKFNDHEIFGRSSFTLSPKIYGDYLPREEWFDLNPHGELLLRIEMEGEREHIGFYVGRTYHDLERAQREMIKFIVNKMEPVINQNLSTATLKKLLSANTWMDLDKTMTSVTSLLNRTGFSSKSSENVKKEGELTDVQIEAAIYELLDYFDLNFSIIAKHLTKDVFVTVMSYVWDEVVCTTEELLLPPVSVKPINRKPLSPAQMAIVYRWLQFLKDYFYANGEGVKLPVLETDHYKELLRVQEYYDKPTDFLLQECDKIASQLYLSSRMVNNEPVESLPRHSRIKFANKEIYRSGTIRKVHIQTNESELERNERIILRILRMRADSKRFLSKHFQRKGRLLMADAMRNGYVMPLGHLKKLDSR
The experiment in a line: pull-down; Kd by supernatant depletion: various concentrations of MBP-Ync13 on amylose beads with a fixed low concentration of Pmo25-(19-329)-6His, 1 h at 4°C; supernatant on SDS-PAGE, Coomassie Blue; one site binding equation. As to conditions: both partners purified.

Assay [2] deals with T2, MBP-Ync13-(591-1130)-6His (S. pombe, UniProt O13683 591-1130).
T2 construct: The cloning of this truncation is not described; not shown: MBP, N-terminal, kept; His6, C-terminal, kept
T2 sequence (looked up): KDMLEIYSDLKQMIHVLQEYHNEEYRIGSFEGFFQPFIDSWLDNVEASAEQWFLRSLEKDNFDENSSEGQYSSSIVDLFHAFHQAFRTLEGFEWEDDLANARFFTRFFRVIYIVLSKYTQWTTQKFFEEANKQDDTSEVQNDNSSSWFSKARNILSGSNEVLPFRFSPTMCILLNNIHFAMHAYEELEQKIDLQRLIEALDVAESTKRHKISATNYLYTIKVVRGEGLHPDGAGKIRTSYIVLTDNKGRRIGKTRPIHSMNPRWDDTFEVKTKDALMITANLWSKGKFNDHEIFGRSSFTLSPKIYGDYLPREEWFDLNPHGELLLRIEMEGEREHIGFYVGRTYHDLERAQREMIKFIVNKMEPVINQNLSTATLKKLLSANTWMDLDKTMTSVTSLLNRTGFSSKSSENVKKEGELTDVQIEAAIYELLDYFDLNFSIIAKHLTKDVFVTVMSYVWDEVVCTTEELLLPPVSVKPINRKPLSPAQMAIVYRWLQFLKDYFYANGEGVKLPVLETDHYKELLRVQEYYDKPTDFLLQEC
The description is as above. As to conditions: both partners purified.

B1: Pmo25-(19-329)-6His (domain or fragment, S. pombe, UniProt Q9P7Q8 19-329, looked up)
chain: LCDNLPKLEINNDKKKSFEEVSKCLQNLRVSLCGTAEVEPDADLVSDLSFQIYQSNLPFLLVRYLPKLEFESKKDTGLIFSALLRRHVASRYPTVDYMLAHPQIFPVLVSYYRYQEVAFTAGSILRECSRHEALNEVLLNSRDFWTFFSLIQASSFDMASDAFSTFKSILLNHKSQVAEFISYHFDEFFKQYTVLLKSENYVTKRQSLKLLGEILLNRANRSVMTRYISSAENLKLMMILLRDKSKNIQFEAFHVFKLFVANPEKSEEVIEILRRNKSKLISYLSAFHTDRKNDEQFNDERAFVIKQIERL
notes: pET21a, between the N-terminal T7 tag and the C-terminal 6xHis tag; not shown: His6, C-terminal, kept
Turning to B1, the figures for the Kd in assay [1] and in assay [2] were 490 nM and 620 nM, respectively.

Values taken from article doi:10.1101/2025.05.13.653815, “Roles of the MO25 protein Pmo25 in contractile-ring stability and localization of the NDR kinase Sid2 during cytokinesis” (bioRxiv, 2025).
